# Experimental data published in patent US11278600B2, “Human alpha-galactosidase variants” (Codexis, Inc., priority 2014, dated 2022).
# Where a chain is given by its changes, count along the chain named.
# B1: 22 (protein)
# chain: LDNGLARTPTMGWLHWERFMCNLDCQEEPDSCISEKLFMEMAELMVSEGWKDAGYEYLCIDDCWMAPQRDSEGRLQADPQRFPHGIRQLANYVHSKGLKLGIYADVGNKTCAGFPGSFGYYDIDAQTFADWGVDLLKFDGCYCDSLENLADGYKHMSLALNRTGRSIVYSCEWPLYMWPFQKPNYTEIRQYCNHWRNFADIDDSWKSVKSILDWTSFNQERIVDVAGPGGWNDPDMLVIGNFGLSWNQQVTQMALWAIMAAPLFMSNDLRHISPQAKALLQDKDVIAINQDPLGKQGYRLRQGDNFEVWERPLSGLAWAVAMINRQEIGGPRSYTIAVASLGKGVACNPACFITQLLPVKRKLGFYEWTSRLRSHVNPTGTVLLQLENTMQMSLKDLLL
# modifications: Synthetic Polypeptide sequence of Variant No. 22 of mature Human GLA
# B2: 28 (protein)
# chain: B1 chain with V208I, Q302K, R373K, V376I
# modifications: Synthetic Polypeptide sequence of Variant No. 28 of mature Human GLA
# B3: 26 (protein)
# chain: B1 chain with P179S, V208I, R299Q, R373K, V376I
# modifications: Synthetic Polypeptide sequence of Variant No. 26 of mature Human GLA
# B4: 29 (protein)
# chain: B1 chain with V208I, Q302K, R373K
# modifications: Synthetic Polypeptide sequence of Variant No. 29 of mature Human GLA
# B5: 32 (protein)
# chain: B1 chain with V208I, R299Q, R373K
# modifications: Synthetic Polypeptide sequence of Variant No. 32 of mature Human GLA
# B6: 25 (protein)
# chain: B1 chain with K36Q, V208I, R299Q, V376I
# modifications: Synthetic Polypeptide sequence of Variant No. 25 of mature Human GLA
# B7: 31 (protein)
# chain: B1 chain with V208I, R299Q, R373K, V376I
# modifications: Synthetic Polypeptide sequence of Variant No. 31 of mature Human GLA
# B8: 23 (protein)
# chain: B1 chain with R299Q, Q302K, R373K
# modifications: Synthetic Polypeptide sequence of Variant No. 23 of mature Human GLA
# B9: 27 (protein)
# chain: B1 chain with V208I, M322V, R373K, V376I
# modifications: Synthetic Polypeptide sequence of Variant No. 27 of mature Human GLA
# B10: 30 (protein)
# chain: B1 chain with V208I, R299Q, Q302K
# modifications: Synthetic Polypeptide sequence of Variant No. 30 of mature Human GLA
# B11: 24 (protein)
# chain: B1 chain with V208I, R299Q
# modifications: Synthetic Polypeptide sequence of Variant No. 24 of mature Human GLA
# How the values were obtained:
# Type in all cases: biochemical
# [1] = HTP-analysis of yeast culture supernatants, no challenge (MUGal hydrolysis); conditions: activity of the variant/activity of WT GLA (SEQ ID NO: 5), yeast supernatant
# Procedure: (§1) Yeast (INVSc1) cells transformed with vectors expressing GLA and GLA variants using the lithium acetate method were selected on SD-Ura agar plates. After 72 h incubation at 30° C. colonies were placed into the wells of Axygen® 1.1 ml 96-well deep well plates filled with 200 μl/well SD-Ura broth (2 g/L SD-Ura, 6.8 g/L yeast nitrogen base without amino acids [Sigma Aldrich]), 3.06 g/L sodium dihydrogen phosphate, 0.804 g/L disodium hydrogen phosphate, pH 6.0 supplemented with 6% glucose. The cells were allowed to grow for 20-24 hours in a Kuhner shaker (250 rpm, 30° C., and 85% relative humidity). Overnight culture samples (20 μL) were transferred into Corning Costar® 96-well deep plates filled with 380 µL of SD-ura broth supplemented with 2% glucose. The plates were incubated for 66-84 h in a Kuhner shaker (250 rpm, 30° C., and 85% relative humidity). The cells were then pelleted (4000 rpm×20 min), and the supernatants isolated and stored at 4° C. prior to analysis.
# GLA variant activity was determined by measuring the hydrolysis of 4-methylumbelliferyl α-D-galactopyranoside (MUGal). For this assay, 5-50 μL, of yeast culture supernatant produced as described above, was mixed with 0-45 μL, of McIlvaine Buffer (McIlvaine, J. Biol. Chem., 49:183-186 [1921]), pH 4.8 and 50 μL of 2 mM MUGal in 50 mM citrate, 200 mM KCl, pH 4.6 in a 96-well, black, opaque bottom plate. The reactions were mixed briefly and incubated at 37° C. for 30-180 minutes, prior to quenching with 100 μL, of 1 M sodium carbonate. Hydrolysis was analyzed using a SpectraMax® M2 microplate reader monitoring fluorescence (Ex. 355 nm, Em. 448 nm).
# [2] = HTP-analysis of supernatants pretreated with acid (MUGal hydrolysis); conditions: challenge at pH 4.3; activity of the variant/activity of WT GLA (SEQ ID NO: 5); yeast supernatant
# Procedure: as §1
# GLA variants were challenged with acidic buffer to simulate the extreme pHs that the variants may encounter in lysosomes. First, 50 μL of yeast culture supernatant and 50 uL of McIlvaine buffer (pH 3.3-4.3) were added to the wells of a 96-well round bottom plate. The plates were sealed with a PlateLoc Thermal Microplate Sealer (Agilent) and incubated at 37° C. for 1-3 h. For the assay, 10-50 uL of acid-pH-challenged sample was mixed with 0-40 μL, of McIlvaine buffer pH 4.8, 25 μL, of 1 M citrate buffer pH 4.3 and 25 μL, of 4 mM MUGal in McIlvaine buffer pH 4.8. The reactions were mixed briefly and incubated at 37° C. for 30-180 minutes, prior to quenching with 100 μL, of 1 M sodium carbonate. Hydrolysis was analyzed using a SpectraMax® M2 microplate reader monitoring fluorescence (Ex. 355 nm, Em. 448 nm).
# [3] = HTP-analysis of supernatants pretreated with base (MUGal hydrolysis); conditions: challenge at pH 7.0; activity of the variant/activity of WT GLA (SEQ ID NO: 5); yeast supernatant
# Procedure: as §1
# GLA variants were challenged with basic (neutral) buffer to simulate the pHs that the variants encounter in the blood following their administration to a patient. First, 50 μL of yeast culture supernatant and 50 uL of McIlvaine buffer (pH 7.0-8.2) or 200 mM sodium bicarbonate (pH 9.1-9.7) were added to the wells of a 96-well round bottom plate. The plates were sealed and incubated at 37° C. for 1-18 h. For the assay, 10-50 μL of basic-pH-challenged sample was mixed with 0-40 μL, of McIlvaine buffer pH 4.8, 25 μL, of 1 M citrate buffer pH 4.3 and 25 μL, of 4 mM MUGal in McIlvaine buffer pH 4.8. The reactions were mixed briefly and incubated at 37° C. for 30-180 minutes, prior to quenching with 100 μL, of 1 M sodium carbonate. Hydrolysis was analyzed using a SpectraMax® M2 microplate reader monitoring fluorescence (Ex. 355 nm, Em. 448 nm).
Molecule,Relative Activity of GLA Variants After No Challenge (NC) [1],Relative Activity of GLA Variants After Challenge at pH 4.3 [2],Relative Activity of GLA Variants After Challenge at pH 7.0 [3]
B1,+ (+ = 0.5 to 1.5 relative activity over WT GLA (SEQ ID NO: 5)),+ (+ = 0.5 to 1.5 relative activity over WT GLA (SEQ ID NO: 5)),+ (+ = 0.5 to 1.5 relative activity over WT GLA (SEQ ID NO: 5))
B2,+ (+ = 0.5 to 1.5 relative activity over WT GLA (SEQ ID NO: 5)),+ (+ = 0.5 to 1.5 relative activity over WT GLA (SEQ ID NO: 5)),+ (+ = 0.5 to 1.5 relative activity over WT GLA (SEQ ID NO: 5))
B3,+ (+ = 0.5 to 1.5 relative activity over WT GLA (SEQ ID NO: 5)),+ (+ = 0.5 to 1.5 relative activity over WT GLA (SEQ ID NO: 5)),+ (+ = 0.5 to 1.5 relative activity over WT GLA (SEQ ID NO: 5))
B4,+ (+ = 0.5 to 1.5 relative activity over WT GLA (SEQ ID NO: 5)),+ (+ = 0.5 to 1.5 relative activity over WT GLA (SEQ ID NO: 5)),+ (+ = 0.5 to 1.5 relative activity over WT GLA (SEQ ID NO: 5))
B5,+ (+ = 0.5 to 1.5 relative activity over WT GLA (SEQ ID NO: 5)),++ (++ = >1.5 to 2.5 relative activity over WT GLA (SEQ ID NO: 5)),+ (+ = 0.5 to 1.5 relative activity over WT GLA (SEQ ID NO: 5))
B6,+ (+ = 0.5 to 1.5 relative activity over WT GLA (SEQ ID NO: 5)),+ (+ = 0.5 to 1.5 relative activity over WT GLA (SEQ ID NO: 5)),+ (+ = 0.5 to 1.5 relative activity over WT GLA (SEQ ID NO: 5))
B7,+ (+ = 0.5 to 1.5 relative activity over WT GLA (SEQ ID NO: 5)),+ (+ = 0.5 to 1.5 relative activity over WT GLA (SEQ ID NO: 5)),+ (+ = 0.5 to 1.5 relative activity over WT GLA (SEQ ID NO: 5))
B8,+ (+ = 0.5 to 1.5 relative activity over WT GLA (SEQ ID NO: 5)),+++ (+++ = >2.5 relative activity over WT GLA (SEQ ID NO: 5)),++ (++ = >1.5 to 2.5 relative activity over WT GLA (SEQ ID NO: 5))
B9,+ (+ = 0.5 to 1.5 relative activity over WT GLA (SEQ ID NO: 5)),+ (+ = 0.5 to 1.5 relative activity over WT GLA (SEQ ID NO: 5)),+ (+ = 0.5 to 1.5 relative activity over WT GLA (SEQ ID NO: 5))
B10,+ (+ = 0.5 to 1.5 relative activity over WT GLA (SEQ ID NO: 5)),++ (++ = >1.5 to 2.5 relative activity over WT GLA (SEQ ID NO: 5)),+ (+ = 0.5 to 1.5 relative activity over WT GLA (SEQ ID NO: 5))
B11,+ (+ = 0.5 to 1.5 relative activity over WT GLA (SEQ ID NO: 5)),++ (++ = >1.5 to 2.5 relative activity over WT GLA (SEQ ID NO: 5)),+ (+ = 0.5 to 1.5 relative activity over WT GLA (SEQ ID NO: 5))
